Experimental data from US20050226876A1 (Hoffmann-La Roche, published 2005).

T1: Recombinant P-selectin (R&D Systems) (human, UniProt P16109 42-771)
T1 construct: extracellular domain; also called recombinant human P-selectin; recombinant truncated form of P-selectin
T1 sequence (looked up): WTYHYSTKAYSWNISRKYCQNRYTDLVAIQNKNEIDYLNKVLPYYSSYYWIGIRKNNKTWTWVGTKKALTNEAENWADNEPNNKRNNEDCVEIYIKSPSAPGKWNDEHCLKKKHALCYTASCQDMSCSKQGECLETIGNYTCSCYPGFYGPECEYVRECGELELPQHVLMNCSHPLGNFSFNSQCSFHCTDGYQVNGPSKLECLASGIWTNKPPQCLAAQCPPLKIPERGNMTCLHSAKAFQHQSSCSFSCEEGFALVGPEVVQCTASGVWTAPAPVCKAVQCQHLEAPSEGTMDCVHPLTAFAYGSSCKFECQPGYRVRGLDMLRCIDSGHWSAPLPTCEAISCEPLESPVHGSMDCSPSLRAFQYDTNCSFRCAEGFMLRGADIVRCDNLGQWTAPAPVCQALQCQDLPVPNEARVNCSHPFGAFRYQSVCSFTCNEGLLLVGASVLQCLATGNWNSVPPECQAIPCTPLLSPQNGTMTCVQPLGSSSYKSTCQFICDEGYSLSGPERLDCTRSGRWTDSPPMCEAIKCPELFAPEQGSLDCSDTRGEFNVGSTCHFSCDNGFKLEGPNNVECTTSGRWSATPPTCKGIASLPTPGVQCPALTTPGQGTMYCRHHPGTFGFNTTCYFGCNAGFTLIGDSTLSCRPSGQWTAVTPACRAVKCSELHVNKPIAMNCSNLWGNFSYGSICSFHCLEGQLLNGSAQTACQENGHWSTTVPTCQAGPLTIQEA

B1: HuMab 003 (antibody, V domains shown)
VH: QVQLVESGGGVVQPGRSLRLSCAASGFTFSSYGMHWVRQAPGEGLEWVAVIWYDGTFKYYADSVKGRFTISRDNSKNTLSLLMNSLRAEDTAVYYCTRGGYYGSGSSFDYYYYGMDVWGQGTTVTVSS
VL: DIQMTQSPSSLSASVGDRVTITCRASQGISSWLAWYQQKPEKAPKSLIYAASSLQSGVPSRFSGSGSGTDFTLTISSLQPEDFATYYCQQYHSYPLTFGGGTKVEIK
notes: Human monoclonal antibody; also called antibody 003; LC 1004-003
B2: HuMab 005 (antibody, V domains shown)
VH: QVQLVESGGGVVQPGRSLRLSCAASGFTFSSYGMHWVRQAPGEGLEWVAVIWYDGTFKYYADSVKGRFTISRDNSKNTLSLLMNSLRAEDTAVYYCTRGGYYGSGSSFDYYYYGMDVWGQGTTVTVSS
VL: EIVLTQSPATLSLSPGERATLSCRASQSVSSYLAWYQQKPGQAPRLLIYDASNRATGIPARFSGSGSGTDFTLTISSLEPEDFAVYYCQQRSNWPPVTFGQGTRLEIK
notes: Human monoclonal antibody; also called antibody 005
B3: HuMab 017 (antibody of cell line hu-Mab<P-selectin>LC 1004-017, DSM ACC2642) (antibody, V domains shown)
VH: QPQLVQSGAEVKKPGASVKVSCKVSGNTLTELSMHWVRQAPGKGLEWMGGFDPENGEAIYAQKFQGRVTMTADTSTDTAYMDLSSLRSEDTAVYYCATDLAGGSDFYYYGLDVWGQGTTVTVSS
VL: AIQLTQSPSSLSASVGDRVTITCRASQGISSALAWYQQKPGKAPKLLIYDASSLESGVPSRFSGSGSGTDFTLTISSLQPEDFATYYCQQFNSYPYTFGQGTKLEIK
notes: Human monoclonal antibody; also called antibody 017
B4: HuMab 001 (antibody of cell line hu-Mab<P-selectin>LC 1004-001, DSM ACC2640) (antibody, V domains shown)
VH: EVQLVESGGGLVQPGGSLRLSCAASGFTFSSYDMHWVRQATGKGLEWVSGITTAGDTYYPGSVKGRFTISRENAKNSLYLQMNSLRAGDTAVYYCARGRISMDRGVKNNWFDPWGQGTLVTVSS
VL: EIVLTQSPATLSLSPGERATLSCRASQSVSSYLAWYQQKPGQAPRLLIYDASNRATGIPARFSGSGSGTDFTLTISSLEPEDFAVYYCQQRNNWPLTFGGGTKVEIK
notes: Human monoclonal antibody from transgenic mice; kappa light and gamma1 heavy chains by the cloning section; also called antibody 001; HuMab 1004-001

Biological target: T1, Recombinant P-selectin (R&D Systems)
Assay: SPR, BIACORE 2000; antibody captured by anti-human Fcγ, recombinant P-selectin 0-50 nM injected; 1:1 Langmuir fit
Procedure: Recombinant P-selectin (R&D Systems) was added in various concentrations between 0-50 nM. Association was measured by P-selectin-injection for 120 seconds; dissociation was measured by washing the chip surface with buffer for 180 seconds. Using Biaevaluation Software the kinetic data were fitted to a 1:1 Langmuir binding model of P-selectin to the presented monoclonal antibody.

Binder	Ka	Kd	koff	kon
B1	2.27e+09 M⁻¹	0.441 nM	0.000291 s⁻¹	660000 M⁻¹ s⁻¹
B2	2.91e+09 M⁻¹	0.343 nM	0.000289 s⁻¹	842000 M⁻¹ s⁻¹
B3	5.59e+10 M⁻¹	0.0179 nM	1.39e-05 s⁻¹	779000 M⁻¹ s⁻¹
B4	1.45e+09 M⁻¹	0.689 nM	0.000419 s⁻¹	608000 M⁻¹ s⁻¹
